Consider 1 substance from patent US20240368304A1.

The target of this test is epidermal growth factor receptor variant III (EGFRvIII) on U87EGFRvIII cells (UniProt P00533). As to the kind of experiment: cell-based or functional assay.

The substance “2173 CD28zeta CAR (EGFRvIII specific CAR) on transduced primary human T cells” displayed a % cytolysis (killing) of U87 VIII GFP target cells, xCELLigence eSight impedance of 100% and a Human IFN-gamma release from CAR T cells co-cultured with U87 VIII GFP target cells (sandwich ELISA, E:T 10:3) of 4750.
